Test results as given in patent publication US20160297884A1 (Pfizer, published 2016).
Residue numbers refer to the chain shown, from its start.

T1: Human BCMA (human, UniProt Q02223 1-54, limits assumed)
T1 construct: Soluble analyte in SPR; construct not described; also called huBCMA; B-cell maturation antigen
T1 sequence (looked up): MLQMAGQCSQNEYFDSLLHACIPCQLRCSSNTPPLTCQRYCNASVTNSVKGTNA

T2: Human BCMA (human, UniProt Q02223 1-54, limits assumed)
T2 construct: also called huBCMA; B-cell maturation antigen
T2 sequence (looked up): T1 sequence (looked up)

B1: L3.PY/L1.FF/H3.AE (antibody, V domains shown)
VH: EVQLLESGGGLVQPGGSLRLSCAASGFTFGSYAMTWVRQAPGKGLEWVSAISGSGGNTFYADSVKGRFTISRDNSKNTLYLQMNSLRAEDTAVYYCARVSPIAAEMDYWGQGTLVTVSS
VL: EIVLTQSPGTLSLSPGERATLSCRASQSVSSFFLAWYQQKPGQAPRLLIYGASSRATGIPDRFSGSGSGTDFTLTISRLEPEDFAVYYCQHYPYPPSFTFGQGTKVEIK
notes: IgG
B2: L3.PY/L3.KY/H2.QR (antibody, V domains shown)
VH: B1 VH with S63Q, V64R, A104S, E105G
VL: B1 VL with F32S, F33Y, Q90K, H91Y
notes: IgG
B3: L3.PY/L3.KF/H3.YA (antibody, V domains shown)
VH: B1 VH with A103Y, E105G
VL: B1 VL with F32S, F33Y, Q90K, H91F
notes: IgG
B4: L3.PY/L3.KY/H3.TAQ (antibody, V domains shown)
VH: B1 VH with A97T, E105Q
VL: B1 VL with F32S, F33Y, Q90K, H91Y
notes: IgG
B5: L3.PY/L3.KF/H2.LT (antibody, V domains shown)
VH: B1 VH with G53L, S54T, A104S, E105G
VL: B1 VL with F32S, F33Y, Q90K, H91F
notes: IgG
B6: L3.PY/L1.PH/H2.QR (antibody, V domains shown)
VH: B1 VH with S63Q, V64R, A104S, E105G
VL: B1 VL with S31P, F32H, F33Y
notes: IgG
B7: L3.PY/L3.KF/H2.YQ (antibody, V domains shown)
VH: B1 VH with G53Y, S54Q, A104S, E105G
VL: B1 VL with F32S, F33Y, Q90K, H91F
notes: IgG
B8: L3.PY/L3.KF/H2.DY (antibody, V domains shown)
VH: B1 VH with S52D, G53Y, A104S, E105G
VL: B1 VL with F32S, F33Y, Q90K, H91F
notes: IgG
B9: L3.PY/L1.FF/H3.AQ (antibody, V domains shown)
VH: B1 VH with E105Q
VL: B1 VL
notes: IgG
B10: L3.PY/L3.KF/H3.AE (antibody, V domains shown)
VH: B1 VH
VL: B1 VL with F32S, F33Y, Q90K, H91F
notes: IgG
B11: L3.PY/L1.PH/H3.TAQ (antibody, V domains shown)
VH: B1 VH with A97T, E105Q
VL: B1 VL with S31P, F32H, F33Y
notes: IgG
B12: L3.PY/L1.PH/H2.HA (antibody, V domains shown)
VH: B1 VH with G53H, S54A, A104S, E105G
VL: B1 VL with S31P, F32H, F33Y
notes: IgG
B13: L3.PY/L3.KY/H2.YQ (antibody, V domains shown)
VH: B1 VH with G53Y, S54Q, A104S, E105G
VL: B1 VL with F32S, F33Y, Q90K, H91Y
notes: IgG
B14: L3.PY/L1.FF/H3.TAQ (antibody, V domains shown)
VH: B1 VH with A97T, E105Q
VL: B1 VL
notes: IgG
B15: L3.PY/L1.FF/H3.YA (antibody, V domains shown)
VH: B1 VH with A103Y, E105G
VL: B1 VL
notes: IgG
B16: L3.PY/L3.KY/H2.HA (antibody, V domains shown)
VH: B1 VH with G53H, S54A, A104S, E105G
VL: B1 VL with F32S, F33Y, Q90K, H91Y
notes: IgG
B17: L3.PY/L3.KY/H3.YA (antibody, V domains shown)
VH: B1 VH with A103Y, E105G
VL: B1 VL with F32S, F33Y, Q90K, H91Y
notes: IgG
B18: L3.PY/L1.PH/H3.AQ (antibody, V domains shown)
VH: B1 VH with E105Q
VL: B1 VL with S31P, F32H, F33Y
notes: IgG
B19: L3.PY/L3.KF/H3.AQ (antibody, V domains shown)
VH: B1 VH with E105Q
VL: B1 VL with F32S, F33Y, Q90K, H91F
notes: IgG
B20: L3.PY/L1.PH/H3.AE (antibody, V domains shown)
VH: B1 VH
VL: B1 VL with S31P, F32H, F33Y
notes: IgG
B21: L3.PY/L3.KY/H2.QL (antibody, V domains shown)
VH: B1 VH with S63Q, V64L, A104S, E105G
VL: B1 VL with F32S, F33Y, Q90K, H91Y
notes: IgG
B22: L3.PY/L3.KF/H2.QL (antibody, V domains shown)
VH: B1 VH with S63Q, V64L, A104S, E105G
VL: B1 VL with F32S, F33Y, Q90K, H91F
notes: IgG
B23: L3.PY/L3.KY/H2.LT (antibody, V domains shown)
VH: B1 VH with G53L, S54T, A104S, E105G
VL: B1 VL with F32S, F33Y, Q90K, H91Y
notes: IgG
B24: L3.PY/L3.KY/H2.DY (antibody, V domains shown)
VH: B1 VH with S52D, G53Y, A104S, E105G
VL: B1 VL with F32S, F33Y, Q90K, H91Y
notes: IgG
B25: L3.PY/L3.KF/H3.TAQ (antibody, V domains shown)
VH: B1 VH with A97T, E105Q
VL: B1 VL with F32S, F33Y, Q90K, H91F
notes: IgG
B26: COMBO_Rd4_0.6nM_C21 (antibody, V domains shown)
VH: EVQLLESGGGLVQPGGSLRLSCAASGFTFSSYPMSWVRQAPGKGLEWVSAIGGSGGSLPYADSVKGRFTISRDNSKNTLYLQMNSLRAEDTAVYYCARYWPMDSWGQGTLVTVSS
VL: EIVLTQSPGTLSLSPGERATLSCRASQSVSSSYLAWYQQKPGQAPRLLMYDASIRATGIPDRFSGSGSGTDFTLTISRLEPEDFAVYYCQQYQSWPLTFGQGTKVEIK
notes: IgG
B27: A02_Rd4_0.6nM_C01 (antibody, V domains shown)
VH: B26 VH with P33A, S35N, G52L, G53S, L58T, P59Y, S104I
VL: B26 VL with A25G, S26G
notes: IgG; also called P5AC1
B28: A02_Rd4_0.6nM_C03 (antibody, V domains shown)
VH: B26 VH with P33A, S35N, G52S, G53D, L58K, P59W, D103S, S104L
VL: B26 VL with Q93F, S94T
notes: IgG

Each binder was assayed against T1, Human BCMA (assay: SPR, IgG immobilised, 37 C).
Method: (§1) All experiments were performed on a Bio-Rad Proteon XPR36 surface Plasmon resonance biosensor (Bio-Rad, Hercules, Calif.). […] The analysis temperature for the immobilization was 25° C. and the running buffer was HBS-T+(10 mM HEPES, 150 mM NaCl, 0.05% Tween-20, pH 7.4). Channels were activated in the analyte (horizontal) direction by injecting a mixture of 1 mM ECD and 0.25 mM NHS for 3 minutes at a flow rate of 30 μL/min. IgGs were immobilized on the activated spots by injecting them in the ligand (vertical) direction at 20 μg/mL in 10 mM Acetate pH 4.5 buffer for 1.5 minutes at […]. The activated surfaces were blocked by injecting 1M ethanolamine, pH 8.5 in the analyte direction for 3 minutes at 30 μL/min.
(§2) The analysis temperature for the BCMA binding analysis was 37° C. or 25° C. in a running buffer of HBS-T+, supplemented with 1 mg/mL BSA. A kinetic titration method was employed for the interaction analysis as described in Abdiche, et al. Human BCMA (huBCMA) or cynomolgus monkey BCMA (cyBCMA) analyte was injected in the analyte direction using a series of injections from low to high concentration. The concentrations used were 0.08 nM, 0.4 nM, 2 nM, 10 nM and 50 nM (a 5-membered series, with a 5-fold dilution factor and top concentration of 50 nM). The association time for a given analyte dilution was two minutes. Immediately after the 50 nM BCMA injection, dissociation was monitored for 2 hours.
(§3) The sensorgrams were double-referenced and fit to a 1:1 Langmuir with mass transport kinetic titration model in BIAevaluation Software version 4.1.1 (GE Lifesciences, Piscataway, N.J.).

| Binder | Kd [nM] | T ½ [min] | koff [s⁻¹] | kon [M⁻¹ s⁻¹] |
| --- | --- | --- | --- | --- |
| B1 | 0.69 | 4.39 | 0.00263 | 3.82e+06 |
| B2 | 0.34 | 11.7 | 0.00099 | 2.95e+06 |
| B3 | 0.47 | 7.85 | 0.00147 | 3.12e+06 |
| B4 | 0.23 | 17.8 | 0.000649 | 2.79e+06 |
| B5 | 0.69 | 6.05 | 0.00191 | 2.75e+06 |
| B6 | 0.64 | 4.89 | 0.00236 | 3.69e+06 |
| B7 | 1.14 | 5.18 | 0.00223 | 1.96e+06 |
| B8 | 0.67 | 6.35 | 0.00182 | 2.74e+06 |
| B9 | 0.46 | 7.51 | 0.00154 | 3.32e+06 |
| B10 | 0.51 | 7.44 | 0.00155 | 3.07e+06 |
| B11 | 0.59 | 5.43 | 0.00213 | 3.58e+06 |
| B12 | 0.49 | 9.99 | 0.00116 | 2.37e+06 |
| B13 | 0.77 | 7.02 | 0.00165 | 2.14e+06 |
| B14 | 0.54 | 6.12 | 0.00189 | 3.52e+06 |
| B15 | 0.51 | 6.41 | 0.0018 | 3.5e+06 |
| B16 | 0.49 | 7.1 | 0.00163 | 3.29e+06 |
| B17 | 0.28 | 12.7 | 0.000912 | 3.3e+06 |
| B18 | 0.52 | 7.27 | 0.00159 | 3.08e+06 |
| B19 | 0.65 | 5.09 | 0.00227 | 3.48e+06 |
| B20 | 0.36 | 8.61 | 0.00134 | 3.68e+06 |
| B21 | 0.57 | 5.56 | 0.00208 | 3.65e+06 |
| B22 | 0.6 | 9.26 | 0.00125 | 2.07e+06 |
| B23 | 0.31 | 12.8 | 0.000906 | 2.92e+06 |
| B24 | 0.2 | 18 | 0.000642 | 3.19e+06 |
| B25 | 0.58 | 7.12 | 0.00162 | 2.82e+06 |

These binders were tested against T2, Human BCMA (assay: SPR, IgG immobilised, human BCMA analyte).
Method: as §1, §2, §3

| Binder | Kd [nM] | koff [s⁻¹] | kon [M⁻¹ s⁻¹] |
| --- | --- | --- | --- |
| B26 | 0.009 | 0.000115 | 1.34e+07 |
| B27 | 0.193 | 0.000915 | 4.74e+06 |
| B28 | 0.043 | 0.000182 | 4.27e+06 |

What follows are binders tested against T3, Cynomolgus monkey BCMA (cynomolgus monkey) (assay: SPR, IgG immobilised, cyno BCMA analyte).
T3 construct: Soluble analyte in SPR; also called cyBCMA; Cyno BCMA
Method: as §1, §2, §3

| Binder | Kd [nM] | koff [s⁻¹] | kon [M⁻¹ s⁻¹] |
| --- | --- | --- | --- |
| B26 | 0.084 | 0.000304 | 3.63e+06 |
| B27 | 0.655 | 0.00157 | 2.39e+06 |
| B28 | 0.201 | 0.000426 | 2.12e+06 |
